Where a SMILES comes first, the peptide text is derived from it. Where no end group is shown, it is not given here. [ ]: non-standard residue; d: D form.

The first assay has as its target T1, human FOXP3 (FOXP3-6His) (Homo sapiens, UniProt Q9BZS1).
T1 construct: 6xHis (C); made in house; host or cells: E. coli BL21 (DE3)
T1 sequence (Q9BZS1 1-431): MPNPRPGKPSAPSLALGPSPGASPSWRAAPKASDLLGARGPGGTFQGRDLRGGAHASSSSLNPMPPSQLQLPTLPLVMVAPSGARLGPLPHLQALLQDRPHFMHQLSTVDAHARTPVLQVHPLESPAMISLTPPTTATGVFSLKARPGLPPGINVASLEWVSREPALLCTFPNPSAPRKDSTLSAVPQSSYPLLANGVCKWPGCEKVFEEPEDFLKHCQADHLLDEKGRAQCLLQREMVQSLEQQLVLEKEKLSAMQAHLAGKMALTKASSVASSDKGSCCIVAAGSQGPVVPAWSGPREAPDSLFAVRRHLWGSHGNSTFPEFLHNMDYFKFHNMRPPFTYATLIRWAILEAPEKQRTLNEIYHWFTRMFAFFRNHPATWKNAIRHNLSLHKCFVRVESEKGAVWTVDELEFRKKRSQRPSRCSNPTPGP
Description: Peptide binding to FOXP3 by surface plasmon resonance (SPR).
Conditions: not given
The text has this:
Plasmid pET20b FOXP3-His was generated to produce the human FOXP3 tagged with 6 histidines at the C terminus of the protein. Briefly, plasmid pDEST15-FOXP3 (provided by Dr. Casal, Madrid, Spain) was used as template to amplify FOXP3 by PCR using the primers Upper FOXP3 Ndel catatgcccaaccccaggc (SEQ ID NO: 55) and Lower FOXP3 […] (SEQ ID NO: 56). The resulting fragment was subcloned in pET20b at Ndel and NotI sites. pET45b His-Runx1 was obtained by PCR of activated human CD4 T cells obtained from healthy volunteers (after the signature of an informed consent) using the primers Upper Runx1 atgcgtatccccgtagatg (SEQ ID NO: 57) and Lower Runx1 […] (SEQ ID NO: 58) and the fragment was cloned in pcDNA3.1. Then, pET45b and pcDNA3.1-Runx1 were digested with BamHI and NotI and ligated to obtain pET45b-Runx1. Plasmids were used to transform BL21 cells (DE3; Novagen, Schwalbach, Germany) for the expression of the recombinant protein. The transformed BL21 cells were grown in LB medium at 37° C. (1 liter of final culture medium) (with ampicilin 0.1 mg/ml). Once the OD of the culture was between 0.5 and 1.0, IPTG (0.4 mM, final concentration) was added. Bacteria were then cultured overnight in agitation and centrifuged for 10 min at 8000 rpm. Cell pellet was then resuspended in 4 ml Tris-HCl 0.1 M and frozen at −80° C. Cell pellet was then thawed and incubated with lisozyme (25 KU) and a protease inhibitor cocktail for 15 min at 30° C. before cell lysis induced with a French-press. The resultant pool was then centrifuged during 20 min at 11.000 rpm). The recombinant protein was purified from the soluble fraction of French-press cell extracts by affinity chromatography (Histrap, Pharmacia) following manufacturer's instructions and using an FPLC platform (AKTA, Pharmacia). Plasmid pDEST15-FOXP3 encoding the fusion protein GST-FOXP3 (GST fused to the isoform A from human FOXP3 gene), was transformed into BL21 cells for the expression of the recombinant protein. GST-FOXP3 protein was purified from the soluble fraction of cell extracts obtained, as described above, by affinity chromatography (GSTrap; Amersham, Piscataway, N.J.) using a fast protein liquid chromatography platform (AKTA; Amersham) following manufacturer's instructions. The eluted proteins were desalted using Hitrap desalting columns (Pharmacia) and analyzed by SDS-PAGE using Coomassie blue (Bio-Safe Coomassie reagent; Bio-Rad, Hercules, Calif.) and by Western blot.
Screening of peptide binding to FOXP3 was performed by surface plasmon resonance (SPR) using ProteOn XPR36 (Bio-Rad, Hercules Calif., USA) optical biosensor. Recombinant protein FOXP3-6His was produced and purified from E. coli as disclosed in previous section and was immobilized covalently onto a GLM sensor chip (176-5012, Bio-Rad) using sulfo-NHS and EDC (Bio-Rad) coupling reagents and the manufacturer's instructions. After protein immobilization, chip surface was treated with ethanolamine to deactivate the excess of reactive esters.
Individual solutions of the peptides to be tested (1-20 μM) were injected by triplicate in running buffer (Phosphate buffered saline, 0.005% (v/v) Tween 20, pH 7.4) at a flow of 30 μl/min. The interspot signal (obtained in the chip surface not immobilized with protein) was used as reference. The results are summarized in Table 6 below as the ratio Peptide of the invention/p60.
Regarding “RAFQAFRKMWPFFAM [SEQ ID NO: 42] (H-RAFQAFRKMWPFFAM-OH)”, the “increase in the binding to FoxP3 with respect to p60 (SEQ ID NO: 1)” value is recorded as “about 400%”.

For “RDFQSFRKMWPFFAM (cyclo(RDFQSFRKMWPFFAM); also: R1 and R2 form a linker birradical which is -C(=O)-) [SEQ ID NO: 49, head-to-tail cyclic peptide]”, the “increase in the binding to FoxP3 with respect to p60 (SEQ ID NO: 1)” value is reported as “about 500%”.

The assay is the same for the next values; noted with them: peptides 1-20 μM; ratio to p60 (SEQ ID NO: 1).
As for 6 (R[dA]FQSFRKMWPFFAM) [compound 6], the “Binding to Foxp3 Ratio binding Peptide/p60 (fold change)” value was determined as 3.3 fold change.

28 (RDFQSFRHMWPFFAM) [compound 28]: the “Binding to Foxp3 Ratio binding Peptide/p60 (fold change)” value is given as 2.6 fold change.

Take “Ac-GRAFQSFRKMWPFFAM-NH2 (C-terminus assumed) [compound 13]”: the “Binding to Foxp3 Ratio binding Peptide/p60 (fold change)” value turned out to be 3.2 fold change.

In the case of 12 (RKFQSFRKMWPFFAM) [compound 12], the “Binding to Foxp3 Ratio binding Peptide/p60 (fold change)” value is given as 2.2 fold change.

As to `CSCC[C@H](NC(=O)[C@H](C)NC(=O)[C@H](Cc1ccccc1)NC(=O)[C@H](Cc1ccccc1)NC(=O)[C@@H]1CCCN1C(=O)[C@H](Cc1c[nH]c2ccccc12)NC(=O)[C@H](CCSC)NC(=O)[C@H](CCCCN)NC(=O)[C@H](CCCNC(=N)N)NC(=O)[C@H](Cc1ccccc1)NC(=O)[C@H](CO)NC(=O)[C@H](CCC(N)=O)NC(=O)[C@H](Cc1ccccc1)NC(=O)[C@@H](CC(=O)O)NC(=O)[C@H](CCCNC(=N)N)NC(=O)CNC(C)=O)C(N)=O` [compound 4] (Ac-GR[dD]FQSFRKMWPFFAM-NH2; C-terminus assumed), the “Binding to Foxp3 Ratio binding Peptide/p60 (fold change)” value is reported as 4.2 fold change.

Regarding “43 (R[dA]FQ[dA]FRKMWPFFAM-NH2; not fully specified (N-terminus)) [compound 43]”, the “Binding to Foxp3 Ratio binding Peptide/p60 (fold change)” value is on record as 4.9 fold change.

Regarding 21 (RDFQNFRKMWPFFAM) [compound 21], the “Binding to Foxp3 Ratio binding Peptide/p60 (fold change)” value amounted to 3.2 fold change.

Turning to “44 (RAFQSFRKMWAFFAM-NH2; not fully specified (N-terminus)) [compound 44]”, the “Binding to Foxp3 Ratio binding Peptide/p60 (fold change)” value is 3.0 fold change.

For the molecule “38 (RDFQSFRKMWAFFA[dM]-NH2; not fully specified (N-terminus)) [compound 38]”, the “Binding to Foxp3 Ratio binding Peptide/p60 (fold change)” value came out at 1.1 fold change.

As for 17 (RDYQSFRKMWPFFAM) [compound 17], the “Binding to Foxp3 Ratio binding Peptide/p60 (fold change)” value stood at 3.3 fold change.

On to 31 (RDFQSFRKMWRFFAM) [compound 31], for which the “Binding to Foxp3 Ratio binding Peptide/p60 (fold change)” value is listed as 2.8 fold change.

With 42 (H-RAFQAFRKMWPFFAM-OH) [compound 42], the “Binding to Foxp3 Ratio binding Peptide/p60 (fold change)” value is 4.1 fold change.

As for 24 (RDFQYFRKMWPFFAM) [compound 24], the “Binding to Foxp3 Ratio binding Peptide/p60 (fold change)” value is recorded as 4.6 fold change.

With 23 (RDFQEFRKMWPFFAM) [compound 23], the “Binding to Foxp3 Ratio binding Peptide/p60 (fold change)” value stood at 1.3 fold change.

Consider 29 (RDFQSFRRMWPFFAM) [compound 29], for which the “Binding to Foxp3 Ratio binding Peptide/p60 (fold change)” value is given as 1.4 fold change.

Take “49 (cyclo(RDFQSFRKMWPFFAM); also: R1 and R2 form a linker birradical which is -C(=O)-) [compound 49]”: the “Binding to Foxp3 Ratio binding Peptide/p60 (fold change)” value is 5.0 fold change.

For the molecule 7 (RSFQSFRKMWPFFAM) [compound 7], the “Binding to Foxp3 Ratio binding Peptide/p60 (fold change)” value is reported as 1.4 fold change.

As to “40 (RDFQSFRKMW[dA]FFAM-NH2; not fully specified (N-terminus)) [compound 40]”, the “Binding to Foxp3 Ratio binding Peptide/p60 (fold change)” value turned out to be 2.2 fold change.

On to 8 (RYFQSFRKMWPFFAM) [compound 8], for which the “Binding to Foxp3 Ratio binding Peptide/p60 (fold change)” value amounted to 1.4 fold change.

Consider 20 (RDFQRFRKMWPFFAM) [compound 20], for which the “Binding to Foxp3 Ratio binding Peptide/p60 (fold change)” value worked out at 3.7 fold change.

As to 33 (RDFQSFRKMWVFFAM) [compound 33], the “Binding to Foxp3 Ratio binding Peptide/p60 (fold change)” value was 1.3 fold change.

As for 25 (RDFQKFRKMWPFFAM) [compound 25], the “Binding to Foxp3 Ratio binding Peptide/p60 (fold change)” value worked out at 4.0 fold change.

As to “39 (RDFQ[dA]FRKMWPFFAM-NH2; not fully specified (N-terminus)) [compound 39]”, the “Binding to Foxp3 Ratio binding Peptide/p60 (fold change)” value was determined as 3.3 fold change.

For 35 (RDFQSFRKMWYFFAM) [compound 35], the “Binding to Foxp3 Ratio binding Peptide/p60 (fold change)” value turned out to be 1.3 fold change.

Take 18 (RDLQSFRKMWPFFAM) [compound 18]: the “Binding to Foxp3 Ratio binding Peptide/p60 (fold change)” value was found to be 1.9 fold change.

Consider 22 (RDFQWFRKMWPFFAM) [compound 22], for which the “Binding to Foxp3 Ratio binding Peptide/p60 (fold change)” value amounted to 2.4 fold change.

As for 16 (RDWQSFRKMWPFFAM) [compound 16], the “Binding to Foxp3 Ratio binding Peptide/p60 (fold change)” value was found to be 3.7 fold change.

With 32 (RDFQSFRKMWNFFAM) [compound 32], the “Binding to Foxp3 Ratio binding Peptide/p60 (fold change)” value worked out at 1.4 fold change.

As to 37 (RDFQSFRKMWKFFAM) [compound 37], the “Binding to Foxp3 Ratio binding Peptide/p60 (fold change)” value is 4.1 fold change.

With 11 (RNFQSFRKMWPFFAM) [compound 11], the “Binding to Foxp3 Ratio binding Peptide/p60 (fold change)” value is listed as 1.4 fold change.

For the origin of these results see US10654896B2, “FoxP3-binding peptides and uses thereof” (FUNDACIÓN PARA LA INVESTIGACIÓN MÉDICA APLICADA, priority 2016, dated 2020).
